For one substance, Kd results are on record in article PMC3093450.

For the assay, the target named is GST-Sec23p (yeast) (UniProt P15303). Nature of the assay: pull-down.
Sequence of GST-Sec23p (yeast) (P15303 2-768): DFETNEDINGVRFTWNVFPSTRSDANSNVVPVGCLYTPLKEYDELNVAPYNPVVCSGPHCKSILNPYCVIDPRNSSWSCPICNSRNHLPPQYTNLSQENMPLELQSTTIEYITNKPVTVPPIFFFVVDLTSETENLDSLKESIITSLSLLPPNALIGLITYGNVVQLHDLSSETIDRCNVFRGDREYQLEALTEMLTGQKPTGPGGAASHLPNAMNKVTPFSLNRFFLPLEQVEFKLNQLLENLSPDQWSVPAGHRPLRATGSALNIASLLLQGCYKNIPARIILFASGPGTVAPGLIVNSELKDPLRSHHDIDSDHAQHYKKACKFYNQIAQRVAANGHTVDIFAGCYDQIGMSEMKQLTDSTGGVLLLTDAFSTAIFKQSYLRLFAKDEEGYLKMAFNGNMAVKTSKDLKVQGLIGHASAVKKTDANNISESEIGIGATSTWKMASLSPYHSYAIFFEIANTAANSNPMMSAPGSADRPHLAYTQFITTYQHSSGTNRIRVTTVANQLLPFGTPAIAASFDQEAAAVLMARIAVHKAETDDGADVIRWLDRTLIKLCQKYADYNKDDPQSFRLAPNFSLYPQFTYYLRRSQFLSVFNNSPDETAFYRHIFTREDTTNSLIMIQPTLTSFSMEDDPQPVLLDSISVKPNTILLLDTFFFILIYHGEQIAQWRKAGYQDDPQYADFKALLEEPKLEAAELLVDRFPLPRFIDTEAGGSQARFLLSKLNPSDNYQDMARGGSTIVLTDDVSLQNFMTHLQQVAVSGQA

On to “TRAPPI complex (from UniProt P36149 1-193)”, for which the Kd came to 0.63 µM.
